Experiments:
[1] = test system: Actinobacillus haemophilus ATCC #43717; assay: LF/GMP assay, viable plate count (pour plate) of broth culture; type: cell-based; details: 35° C.; for Colony Counts: viable plate count
Description: (§1) Bacterial strains used in this study were Pseudomonas aeruginosa ATCC #27853, Streptococcus mutans ATCC #33535, Streptococcus pyogenes ATCC #19615, and Actinobacillus haemophilus ATCC #43717 and an oral swab from a healthy adult. Bacteria were grown on blood/BHT media (Brain Heart Infusion Agar with protease peptone, sodium chloride, glucose, di-sodium phosphate, and agar, Oxoid, Hampshire England, Sheep's Blood) in the presence of 5% CO2 at 35° C. […] One ml of the appropriate bacterial dilution was taken using a sterile pipette and introduced into 8 ml of sterilized BHI broth. […] By pipette, 9 ml of broth was placed into medium test tubes as means of a control and 8 ml test tubes were prepared for the concentration tests). […] This solution was filtered through a 0.45 μm filter. […] To study the kinetics of LF/GMP binding, each strain of bacteria was taken separately with a sterile pipette and placed into an 8 ml BHI broth test tube, vortexed, and incubated in the presence of 1 ml of LF or GMP for 18-24 hours at 35° C. with 5% CO2. In the combination procedure, 0.5 ml of both LF and […] were taken as 1 ml inoculations. One mL of each bacterial strain, plus one mL of sialic acid solution (1,000 ppm) were inoculated into test tubes filled with 8 mL of BHI broth. Each test tube was vortexed, incubated for 24 hours at 35° C. with 5% CO2, and then pour plated in BHI agar to obtain a plate count. This technique was used to determine the density of living (viable) cells in inoculated broth cultures. It involves plating a bacterial sample and counting the resulting colonies after incubation. A serial dilution of the original broth was taken prior to plating. The serial dilution is necessary to reduce the density of organisms in order to create countable plates. Only plates containing between 25 and 250 colonies are considered countable. Cell densities are traditionally recorded as CFU (colony forming unit)/ml. […] Formula: [formula] The assays required the use of a pour plate technique. The pour plate technique adds a step to the conventional serial dilution. The 1 ml of dilution is added to a warm emulsion of dilute nutrient (BHI) agar to produce an agar overlay in the petri plates. After incubation, the bacterial growth covers the entire plate but individual cellular movement has been restricted by the soft agar overlay. Each colony formed is assumed to have originated from a single CFU. The plates were gently mixed, inverted, and incubated for 18-24 hour at 35° C. Using a control (one broth tube inoculated with a bacterial strain, but no LF), the effectiveness of LF was examined. Each test tube containing a specified amount of LF (50, 100, 250, 500, 1,000 ppm and 3000 ppm) was diluted and plates were poured. […] A. haemophilus, S. mutans, S. pyrogenes and an oral culture were tested at 35° C. Pseudomonas aeruginosa was tested at both room temperature and 35° C. with 5% CO2. This was done because P. aeruginosa is not strictly an oral pathogen. It is commonly found in the environment in various conditions. It can be found in the environment and oral intake can cause inflammation in the oral cavity. Most normal oral bacteria are only found in the mouth and are not taken in from outside factors. Therefore, P. aeruginosa is a threat in both temperature settings. […] (see Table 2).

[2] = test system: Streptococcus mutans ATCC #33535; assay: as above; type: cell-based; details: 35° C.; for Colony Counts: viable plate count
Description: as §1

[3] = Lactoferrin/GMP 250/0 ppm (LF alone)
[4] = Lactoferrin/GMP 3,000/0 ppm (LF alone)
[5] = Lactoferrin/GMP 3,000/0 ppm (LF alone), listed as Lactoferrin

B1: LF: Bovine lactoferrin, iron-binding glycoprotein purified from milk, provided by DMV International (protein, UniProt P24627 20-708, looked up)
Lactotransferrin: APRKNVRWCTISQPEWFKCRRWQWRMKKLGAPSITCVRRAFALECIRAIAEKKADAVTLDGGMVFEAGRDPYKLRPVAAEIYGTKESPQTHYYAVAVVKKGSNFQLDQLQGRKSCHTGLGRSAGWIIPMGILRPYLSWTESLEPLQGAVAKFFSASCVPCIDRQAYPNLCQLCKGEGENQCACSSREPYFGYSGAFKCLQDGAGDVAFVKETTVFENLPEKADRDQYELLCLNNSRAPVDAFKECHLAQVPSHAVVARSVDGKEDLIWKLLSKAQEKFGKNKSRSFQLFGSPPGQRDLLFKDSALGFLRIPSKVDSALYLGSRYLTTLKNLRETAEEVKARYTRVVWCAVGPEEQKKCQQWSQQSGQNVTCATASTTDDCIVLVLKGEADALNLDGGYIYTAGKCGLVPVLAENRKSSKHSSLDCVLRPTEGYLAVAVVKKANEGLTWNSLKDKKSCHTAVDRTAGWNIPMGLIVNQTGSCAFDEFFSQSCAPGADPKSRLCALCAGDDQGLDKCVPNSKEKYYGYTGAFRCLAEDVGDVAFVKNDTVWENTNGESTADWAKNLNREDFRLLCLDGTRKPVTEAQSCHLAVAPNHAVVSRSDRAAHVKQVLLHQQALFGKNGKNCPDKFCLFKSETKNLLFNDNTECLAKLGGRPTYEEYLGTEYVTAIANLKKCSTSPLLEACAFLTR
For B1, the “Colony Counts” value ([1]; 50 ppm, 24 h) was 2.6 × 10^8, the “Colony Counts” value ([1]; 100 ppm, 24 h) was 2.5 × 10^8 and the “Colony Counts” value ([1]; 250 ppm, 24 h) was 2.5 × 10^8. For the same molecule, the “Colony Counts” value ([1]; 500 ppm, 24 h) was 2.3 × 10^8, the “Colony Counts” value ([1]; 1,000 ppm, 24 h) was 2.4 × 10^8 and the “Colony Counts” value ([1]; 3,000 ppm, 24 h) was 5.3 × 10^7. The “Total Log Reduction” value [1, 3] was 0 log, the “Total Log Reduction” value [1, 4] was “one log” and the “Total Log Reduction” value [1, 5] was 1 log. The “# Log Reductions” value ([1]; at the MIBC, vs control) was 1 log, the MIBC ([1]; single agent, 24 h, 5% CO2) was 3,000 ppm and the “Colony Counts” value ([2]; 50 ppm, 24 h) was 1.9 × 10^8. The “Colony Counts” value ([2]; 100 ppm, 24 h) was 1.9 × 10^8, the “Colony Counts” value ([2]; 250 ppm, 24 h) was 1.7 × 10^8 and the “Colony Counts” value ([2]; 500 ppm, 24 h) was 1.4 × 10^8. For the same molecule, the “Colony Counts” value ([2]; 1,000 ppm, 24 h) was 1.2 × 10^8, the “Colony Counts” value ([2]; 3,000 ppm, 24 h) was 5.5 × 10^7 and the “Total Log Reduction” value [2, 3] was 0 log. For the same molecule, the “Total Log Reduction” value [2, 4] was “one log”, the “Total Log Reduction” value [2, 5] was 1 log and the “# Log Reductions” value ([2]; at the MIBC, vs control) was 1 log. For the same molecule, the MIBC ([2]; single agent, 24 h, 5% CO2) was 3,000 ppm.

— US6890900B2, “Methods for treating or preventing diseases of the oral cavity” (Campina B.V., priority 2001, dated 2005)
